According to patent US20240409645A1 (DUALYX, published 2024):

T1: human IL-2Rβ (human, UniProt P14784 27-240, limits assumed)
T1 construct: recombinant protein, coated or immobilised; also called hu IL-2R; IL-2R beta
T1 sequence: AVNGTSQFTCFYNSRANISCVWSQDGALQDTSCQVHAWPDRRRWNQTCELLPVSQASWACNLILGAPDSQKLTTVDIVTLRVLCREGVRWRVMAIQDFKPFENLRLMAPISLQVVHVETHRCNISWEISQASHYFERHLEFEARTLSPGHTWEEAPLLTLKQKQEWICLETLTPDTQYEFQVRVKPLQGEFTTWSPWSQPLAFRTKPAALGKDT

B1: FJ1427 P035MP02D05 (VHH)
VHH: QVQLVESGGGLVQPGESLGLSCAASGFTFSNYAMSWVRQAPGKGLEWVSSITGAGRGTDYADSVKGRFTISRDNAKNTLYLQMNSLKPEDTAVYYCAKYSSGTYYPPTPVRGTDYRGQGTQVTVSS
notes: soluble VHH in periplasmic extract; also called clone nr
B2: FJ1427_P035MP02A03 (VHH)
VHH: QVQLVESGGGLVQPGGSLRLSCAASGFTFSNYAMSWVRQAPGKGLEWVSSITGAGRGTYYAESVKGRFTISRDNDKNTLYLQMNSLKPEDTAVYYCAKYDSSTFYPPTPARGIADRGQGTRVTVSS
notes: as for B1
B3: FJ1427_P035MP02C04 (VHH)
VHH: QVQLVESGGGLVQPGGSLELSCAASGFTFSNYAMSWVRQAPGKGLEWVSSITGFGRGTDYADSVKGRFTISRDNDKNTLYLQMNSLKPEDTAVYYCARYSSSTYYPPTPARGRDYRGQGTQVTVSS
notes: as for B1
B4: FJ1427 P035MP02E06 (VHH)
VHH: QVQLVESGGGSVQPGGSLRLSCAASGFTFSNYAMSWVRQAPGKGLEWVASITGFGRGTDYADSVKGRFTISRDNAEDTLYLQMNSLKPEDTAVYYCAKYSSSTYYPPTPARGRDYRGQGTQVTVSS
notes: soluble VHH in periplasmic extract; also called 15-MP02E06; clone nr
B5: FJ1427_P035MP02A02 (VHH)
VHH: QVQLVESGGGLVQPGGSLRLSCAASGFTFDNYAMTWVRQAPGKGLEWVSSITGAGRGTHYADSVKGRFTISRDNAKNTLYLQVNSLKPEDTAVYYCARYSSSTYYPTTPVRGTDYRGQGTQVTVSS
notes: as for B1
B6: FJ1427_P035MP02G03 (VHH)
VHH: QVQLVESGGGLVQPGGSLGLSCAASGFTFSNYAMSWVRQAPGKGLEWVASITGFGRGTDYADSVKGRFTVSRDNAKNTLYLQMNSLKPEDTAVYYCAKYSSSTYYPPTPARGRDYRGQGTQVTVSS
notes: as for B1
B7: FJ1427_P035MP02B06 (VHH)
VHH: QVQLVESGGGLVQPGESLGLSCAASGFTFSNYAMSWVRQAPGKGLEWVSSITGAGRGTDYADSVKGRFTISRDNAKNTLYLQMNSLKPEDTAVYYCAKYSSGTYYPPTPVRGTDYRGQGTQVTVSS
notes: as for B1
B8: FJ1427_P035MP02E01 (VHH)
VHH: EVQLVESGGGLVQIGGSLRLSCAASGRTFSSITMAYFRQVPGKEREWVAGINFSGTRTFYADSVKGRFLISRDDAKSTMYLQMNSLKPEDTAVYYCAASPRGFYGPGNALYDYWGQGTQVTVSS
notes: as for B1
B9: FJ1427 P035MP02E02 (VHH)
VHH: EVQLVESGGGLVQTGGSLRLSCAASGSQFINDVMGWYRQVPGKQRELVADMDDTGSTKYADSVKGRFTILRDSVKNTAYLQMSNLKPEDTGVYYCKAGLWIKGRHSDYWGQGTQVTVSS
notes: as for B1
B10: FJ1427_P035MP02A05 (VHH)
VHH: EVQLVESGGGLVQTGGSLRLSCAASGSQFINDVMGWYRQVPGKQRELVADMDDTGSTKYADSVKGRFTILRDSVKNTAYLQMSNLKPEDTGVYYCKAGLWIKGRHSDYWGQGTQVTVSS
notes: as for B1
B11: FJ1427 P035MP02C05 (VHH)
VHH: QVQLVESGGGLVQTGGSLRLSCAVSGSRFISDVMGWYRQVPGKQRELVADMADGGSAKYADSVKGRFSILRDSVKNTVYLQMSSLKPEDTGIYYCKAGLWIAGRHSDYWGQGTQVTVSS
notes: as for B1
B12: FJ1427 P035MP02F04 (VHH)
VHH: EVQLVESGGGLVQTGGSLRLSCAASGSQFINDVMGWYRQVPGKQRELVADMDDTGSTKYADSVKGRFTILRDSVKNTAYLQMSNLKPEDTGVYYCKAGLWIKGRHFDYWGQGTQVTVSS
notes: as for B1
B13: FJ1427 P035MP02A04 (VHH)
VHH: EVQLVESGGGLVQTGGSLRLSCTASGSQFINDVMGWYRQVPGKQRELVADMDDTGSTKYADSVNGRFTILRDSVKNTAYLQMSNLKPEDTGVYYCKAGLWIKGRHSDYWGQGTQVTVSS
notes: as for B1
B14: FJ1427_P035MP02B05 (VHH)
VHH: EVQLVESGGGLVQTGGSLRLSCAASGSQFINDVMGWYRQVPGKQRELVADMDDTGSTKYADSVKGRFTILRDSVKNTAYLQMSNLKPEDTGVYYCKAGLWIKGRHFDYWGQGTQVTVSS
notes: soluble VHH in periplasmic extract; also called clone nr; 130
B15: FJ1427 P035MP02C03 (VHH)
VHH: EVQLVESGGGLVQTGGSLRLSCAASGSQFINDVMGWYRQVPGKQRELVADMDDTGSTEYADSVKGRFTILRDSVKNTAYLQMSNLKPEDTGVYYCKAGLWIKGRHFDYWGQGTQVTVSS
notes: soluble VHH in periplasmic extract; also called 14-MP02C03; clone nr
B16: FJ1427_P035MP02F05 (VHH)
VHH: EVQLVESGGGLVQTGGSLRLSCAVSGSRFISDVMGWYRQVPGKQRELVADMADGGSAKYADSVKGRFSILRDSVKNTVYLQMSSLKPEDTGIYYCKAGLWIAGRHSDYWGQGTQVTVSS
notes: as for B1
B17: FJ1427 P035MP02G05 (VHH)
VHH: EVQLVESGGGLVQTGGSLRLSCAASGSQFINDVTGWYRQVPGKQRELVADMDDTGSTKYADSVKGRFTILRDSVKNTAYLQMSNLKPEDTGVYYCKAGLWIKGRHSDYWGQGTQVTVSS
notes: as for B1
B18: FJ1427_P035MP02B01 (VHH)
VHH: QVQLVESGGGLVQTGGSLRLSCAASGSQFINDVMGWYRQVPGKQRELVADMDDTGSTKYADSVKGRFTILRDSVKNTAYLQMSNLKPEDTGVYYCKAGLWIKGRHFDYWGQGTQVTVSS
notes: soluble VHH in periplasmic extract; also called clone nr; 98
B19: FJ1427_P035MP02F01 (VHH)
VHH: EVQLVESGGGLVQTGGSLRLSCAVSGSRFISDVMGWYRQVPGKQRELVADMADGGSAKYADSVKGRFSILRDSVKNTVYLQMSSLKPEDTGIYYCKAGLWIAGRHSDYWGQGTQVTVSS
notes: as for B1
B20: FJ1427 P035MP02D01 (VHH)
VHH: QVQLQESGGGLVQTGGSLRLSCAASGSQFINDVMGWYRQVPGKQRELVADMDDTGSTKYADSVKGRFTILRDSVKNTAYLQMSNLKPEDTGVYYCKAGLWIKGRHSDYWGQGTQVTVSS
notes: soluble VHH in periplasmic extract; also called clone nr; 100
B21: FJ1427_P035MP02D04 (VHH)
VHH: QVQLVESGGGLVQTGGSLRLSCAVSGSRFISDVMGWYRQVPGKQRELVADMADGGSAKYADSVKGRFSILRDSVKNTVYLQMSSLKPEDTGIYYCKAGLWIAGRHSDYWGQGTQVTVSS
notes: as for B1
B22: FJ1427_P035MP02G04 (VHH)
VHH: QVQLVESGGGLVQAGGSLRLSCAASGSQFINDVMGWYRQVPGKQRELVADMDDTGSTKYADSVKGRFTILRDSVKNTAYLQMSNLKPEDTGVYYCKAGLWIKGRHFDYWGQGTQVTVSS
notes: as for B1

Columns and labels:
[1] = target: T1, human IL-2Rβ; test: P.E. ELISA, coated protein
Protocol: In a binding ELISA, human or mouse IL-2Rα, IL-2Rβ and IL-2Rγ proteins were coated directly on maxisorp microtiter plates overnight at 4° C. Free binding sites were blocked using 4% Marvel in PBS for 1 hour. Next, 1:5 dilution of P.E. in 1% Marvel/PBS were added to wells and incubated for 1 hour. […] Binding specificity was determined based on O.D. at 450 nm values compared to negative controls.

[2] = target: T1, human IL-2Rβ; test: SPR, P.E. off-rate
Protocol: SPR was performed to determine dissociation rates using Biacore 3000 instrument (GE Healthcare). Briefly, human and mouse IL-2R proteins were immobilized on carboxylmethyl dextran sensor chip (CM5) at approximately 2500 RUs using amine coupling in acetate buffer (GE Healthcare). The VHH-containing P.E. were loaded with a flow rate of 30 uL/min and the off-rates were measured over a 120s period.

P.E. binding ELISA OD [1] [OD450 nm] | koff [2] [s⁻¹] | Binder
0.118 | 0.00279 | B1
0.207 | 0.000571 | B2
0.424 | 0.00255 | B3
0.581 | 0.00169 | B4
0.223 | 0.00262 | B5
0.197 | 0.00293 | B6
0.125 | 0.0046 | B7
1.11 | 4.5e-05 | B8
0.254 | 0.000269 | B9
0.263 | 0.000444 | B10
0.237 | 0.000346 | B11
0.516 | 0.000343 | B12
0.533 | 0.000368 | B13
0.553 | 0.000292 | B14
0.183 | 0.000714 | B15
0.206 | 0.000334 | B16
0.567 | 0.000432 | B17
0.271 | 0.000119 | B18
0.469 | 0.0003 | B19
0.573 | 0.000167 | B20
0.447 | 0.000358 | B21
0.549 | 0.000295 | B22
